Biological target: T1, DnaAΔC with a C-terminal hexa-histidine tag (B. subtilis, UniProt P05648 1-355)
T1 sequence (looked up): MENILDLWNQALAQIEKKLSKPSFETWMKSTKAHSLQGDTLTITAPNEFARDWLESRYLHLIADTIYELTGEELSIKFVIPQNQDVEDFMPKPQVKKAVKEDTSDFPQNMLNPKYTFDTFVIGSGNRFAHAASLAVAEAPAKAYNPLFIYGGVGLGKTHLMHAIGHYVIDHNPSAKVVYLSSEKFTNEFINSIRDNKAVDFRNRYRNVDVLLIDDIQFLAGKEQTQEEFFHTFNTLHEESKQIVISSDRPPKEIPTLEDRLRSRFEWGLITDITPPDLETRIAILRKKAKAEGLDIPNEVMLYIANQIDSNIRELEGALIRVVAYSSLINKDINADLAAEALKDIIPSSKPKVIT
Assay: native gel or EMSA

- binding result: binds
B1: Rok with a C-terminal hexa-histidine tag (natural protein, B. subtilis, UniProt O34857 1-191, looked up)
chain: MFNEREALRLRLEQLNEAEVKVIREYQIERDKIYAKLRELDRNGSPSEIKKDFRSEKKPDSLPVLAELAAQEIRSYQPQSQQQSVQPQLQSISSLPAGIPDGTTRRRRGTARPGSKAAKLREAAIKTLKRHNAAIKSSELQKEIEKESGLEIPNMTTFMQSLIKMYPEVKKPYRGQYILEGEIESAESANE

From publication PMC5323315 (Molecular microbiology, 2017)
